Tests used:
IPC-298 melanoma cells [1] = experiment: IPC-298 cell proliferation with secondary immunotoxin Mab-ZAP; assay type: cell-based, human; conditions: in combination with secondary immunotoxin Mab-ZAP (100 ng/well), 72 hours
Procedure: In order to evaluate the specific suitability and efficacy of anti-Eag1 monoclonal antibodies for conjugation as primary immunotoxin, in vitro cell proliferation assays were performed in the presence of anti-Eag1 antibody in conjunction with a secondary antibody conjugated to saporin, a ribosome-inactivating protein from the seeds of the plant Saponaria officinalis. The secondary immunotoxin binds to the anti-Eag1 antibody is internalized into the cell alongside the primary antibody. Once the immunotoxin is internalised, saporin breaks away from the targeting agent and inactivates the ribosomes, which causes protein inhibition and, ultimately, cell death.
For the assay (FIG. 8a) 3000 IPC-298 cells were seeded in 60 μl/well FCS-containing medium on 96-well plates overnight. 100 ng/well (1 ng/μl) Mab-ZAP was mixed with 10 ng/μl of mouse monoclonal anti-Eag1 antibodies ImAb1 or ImAb4 in 40 μl FCS-containing medium for 1 h at 37° C. and then directly added to the cells in quadruplicates. […] The quantity of formazan product was measured by the amount of 490 nm absorbance using an ELISA plate reader.
For the assay shown in FIG. 8b 3000 IPC-298 cells were seeded in 60 μl/well FCS-containing medium on 96-well plates overnight. […] Absorbance was measured using a spectrofluorometer at 590 nm every 30 min.

IPC-298 melanoma cells [2] = experiment: Soft agar assay IPC-298 with secondary immunotoxin Mab-ZAP; assay type: cell-based, human; conditions: 2.5 ng antibody with 100 pg Mab-ZAP, 10 days
Procedure: For comparison Mab-ZAP was pre-incubated with 2.5 ng control IgG. After 30 min pre-incubation, 2000 IPC-298 cells in OptiMEM with 20 mM KCl were added and further incubated at 37° C. for 30 min. IPC-298 cells, pre-incubated with immunotoxin-labelled anti-EAG1 antibody, were resuspended in 50 μl/well 0.25% Difco noble agar containing OptiMEM with 0.5% FCS and plated on 50 μl/well 0.5% agarose underlayer containing OptiMEM with 0.5% FCS in quadruplicates. Additionally, 50 μl/well 0.25% feeding agar containing OptiMEM with 0.5% FCS was plated. Colonies were allowed to form for 10 days and were stained with 50 μl MTT (1 mg/ml in PBS) for 1.5 hours. Wells were scanned using an Epson scanner and colonies were counted using the Scion Image software.

Eag1 currents = biological target: T1, Eag1 currents (Homo sapiens, UniProt O95259); experiment: Whole cell patch clamp, Eag1 currents in transfected HEK293 cells; assay type: cell-based; conditions: 300 nM, control antibody
T1 construct: expressed in transfected cells; host or cells: HEK293
T1 sequence (O95259 1-962 isoform O95259-2): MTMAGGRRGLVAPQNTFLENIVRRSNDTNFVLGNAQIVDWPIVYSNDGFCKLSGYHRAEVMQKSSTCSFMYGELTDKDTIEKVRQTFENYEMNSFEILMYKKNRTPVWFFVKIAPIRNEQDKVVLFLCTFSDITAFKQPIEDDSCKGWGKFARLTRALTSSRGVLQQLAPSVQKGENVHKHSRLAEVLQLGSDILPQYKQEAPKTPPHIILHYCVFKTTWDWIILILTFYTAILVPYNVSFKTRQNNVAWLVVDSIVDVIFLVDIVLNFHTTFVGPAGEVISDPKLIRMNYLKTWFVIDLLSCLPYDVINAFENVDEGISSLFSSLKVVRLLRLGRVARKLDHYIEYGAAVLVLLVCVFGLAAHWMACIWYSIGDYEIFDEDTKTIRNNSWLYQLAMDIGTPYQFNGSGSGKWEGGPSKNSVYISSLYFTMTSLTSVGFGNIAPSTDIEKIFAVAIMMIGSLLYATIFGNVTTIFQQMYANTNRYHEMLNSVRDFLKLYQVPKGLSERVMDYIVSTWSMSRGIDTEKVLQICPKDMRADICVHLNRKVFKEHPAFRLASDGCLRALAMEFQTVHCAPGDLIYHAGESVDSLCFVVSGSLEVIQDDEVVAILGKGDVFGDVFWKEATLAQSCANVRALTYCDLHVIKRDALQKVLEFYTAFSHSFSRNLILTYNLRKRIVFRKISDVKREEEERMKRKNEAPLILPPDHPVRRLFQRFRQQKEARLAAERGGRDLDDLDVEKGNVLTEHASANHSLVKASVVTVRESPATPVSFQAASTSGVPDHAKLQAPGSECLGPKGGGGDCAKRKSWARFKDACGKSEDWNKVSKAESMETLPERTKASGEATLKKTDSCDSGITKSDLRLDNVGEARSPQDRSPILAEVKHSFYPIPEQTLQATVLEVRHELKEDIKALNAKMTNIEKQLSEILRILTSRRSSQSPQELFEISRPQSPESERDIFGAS
Procedure: To characterize effective affinity and specificity of the antibodies, block of Eag1 currents by ImAb3 in transfected HEK293 cells was tested in the whole cell configuration of the patch clamp technique. Currents were elicited by the depicted (FIG. 18a) pulse protocol (depolarization to +40 mV from a holding potential of −80 mV). Once a stable current level had been achieved, the antibody was applied to the bath chamber at a concentration of 300 nM, (approx 45 μg/ml). […] The antibody and the peptide were incubated (1:1 representing approximately 50 times molar excess of the peptide) at room temperature for 1 h and the mixture was used as described for the antibody alone.

B1: ImAb4: mouse monoclonal anti-Eag1 antibody, IgG2b kappa; light chain SEQ ID NO: 2, heavy chain SEQ ID NO: 4 (antibody, listed as Mus musculus)
heavy: MRVLILLWLFTAFPGILSDVQLQESGPGLVKPSQSLSLTCTVTGYSITSDYAWNWIRQFPGNKLEWMGYISYSGSTIYNPSLKSRISITRDTSKNQFFLQLNSVTTEDTATYYCARFGNYGNTLNYWGQGTSVTVSSAKTTPPSVYPLAPGCGDTTGSSVTLGCLVKGYFPESVTVTWNSGSLSSSVHTFPALLQSGLYTMSSSVTVPSSTWPSQTVTCSVAHPASSTTVDKKLEPSGPISTINPCPPCKECHKCPAPNLEGGPSVFIFPPNIKDVLMISLTPKVTCVVVDVSEDDPDVQISWFVNNVEVHTAQTQTHREDYNSTIRVVSTLPIQHQDWMSGKEFKCKVNNKDLPSPIERTISKIKGLVRAPQVYILPPPAEQLSRKDVSLTCLVVGFNPGDISVEWTSNGHTEENYKDTAPVLDSDGSYFIYSKLNMKTSKWEKTDSFSCNVRHEGLKNYYLKKTISRSPGK
light: MKLPVRLLVLMFWIPASSSDVVMTQTPLSLPVSLGDQASISCRSSQSLVHSNGNTYLHWYLQKPGQSPKLLIYKVSNRFSGVPDRFSGSGSGTDFTLKISRVEAEDLGVYFCSQSTHVPPTFGGGTKLEIKRADAAPTVSIFPPSSEQLTSGGASVVCFLNNFYPKDINVKWKIDGSERQNGVLNSWTDQDSKDSTYSMSSTLTLTKDEYERHNSYTCEATHKTSTSPIVKSFNRNEC
With B1 the “inhibition of cell proliferation” value (IPC-298 melanoma cells [1]) was “inhibition of IPC-298 melanoma cell proliferation”, the “inhibition of anchorage independent cell growth” value (IPC-298 melanoma cells [2]) was “inhibits anchorage independent tumor cell growth” and the “effect on current amplitudes” value (Eag1 currents) was “showed no effect on current amplitudes”.
